# Assay results as given in a protein production outcome set (Wang et al. 2014).
# Assay: label from the status in PepcDB records
row,Sequence,protein production
1,MAITVKGLTNKLTRTQRRIAVVEFIFSLLFFLPKEAEVIQADFLEYDTKERQLNEWQKLIVKAFSENIFSFQKKIEEQQLKNQLEIQTKYNKISGKKIDLLTTAVVLCALSEQKAHNTDKPLLISEALLIMDHYSQGAEKKQTHALLDKLL,not failed
2,MAKAIVSIFVVFFIFFLVISDVPEIEAQGNECLKEYGGDVGFGFCAPRIFPTICYTRCRENKGAKGGRCRWGQGSNVKCLCDFCDDTPQ,not failed
3,MAKEKTLDDLFHDTLKDIYYAERKILKALPKMARAAQAPELKAAFEKHKEQTETHVERLQQVFEMIGKRAQGKTCEAIEGIVAEGEEIMDEFKGTAALDAGLISAAQAVEHYEISRYGTLKTWAKTIGLKDAVSLLDATLKEEVVTDEDLTKLAMAQVNKKAA,not failed
4,MAKETVCVTGANGFIGSWIIRTLIEKGYTKIHASIYPGSDPTHLLQLPGSDSKIKIFEADLLDSDAISRAIDGCAGVFHVASPCTLDPPVDPEKELVEPAVKGTINVLEAAKRFNVRRVVITSSISALVPNPNWPEKVPVDESSWSDLDFCKSRQKWYPISKTLAEKAAWEFSEKHGTNIVTIHPSTCLGPLLQPNLNASCAVLLQLLQGSTETQEHHWLGVVHVKDVAKGHVMLFETPDASGRFLCTNGIYQFSEFAALVSKLFPEFAVHKFDKETQPGLTSCNDAAKRLIELGLVFTAVEDAVKETVQSLRDKGFL,failed
5,MAKGGFPGFGGNINNLVKQAQKMQRDMERVQEELKEKTVEASAGGGAVTVVATGRKDIKEITIKPEVVDPDDVEMLQDLILAAVNEALRKADEMVTAEISKITGGLGGIPGLF,not failed
6,MAKHLGESKQKLLQLMALSCPIRLNNAPRRLAKQARSQRIKRNISKGPGMSLSRCLSGLSNLLHYRREWLRADLRAGLSVAAIQIPIAIAYAQIVGLPPQYGLYACVLPMIVYALIGSSRQLMVGPDAATCAMLGGAVAPLAMGDLQRTVELSMIVTVLVGLMLIAAGIARAGFIASFFSRPILIGYLNGIGLSLIAGQMGKVVGFKIEGDGFILGLADFLQRLGEIHGLTLAVGLASLGLLIWLPRRYPRVPAALLTVALFTLLAGLLGFDRLGVAILGHVPAGMPELSWPKTTLEESKSLLRDALGIATVSFCSAMLTARSFAARHGYAINANHEFIALGLSNLAAGASQGFAISGADSRTAVNDMAGGKSQLVGIIAALAIALILLFFTAPMAWIPQPALGAVLLMAGWGLLDVKSLKQIYRLSRFEFWLCLLTTVSVLGLGVLPGIMFAVTLAILRLLYSIYQPTDAVLGWMPGIEGQVDIRQYPQARTVPGLVVYRFDDAILFFNADYFKMRLLDTVQRESQPEVVLFDAEAVTDIDVSGIAVLREIRETLAAQGIYFAIARARGTFLAMLERSGMTREMDSQLLFGSVRSGIRTYRIWRNSMRGKQ,failed
7,MAKIKKYTTKTGKIRYEFQVYAGVDSLTGRQKTTRRRGFKTRKEASIVLSRLELEIEKRGLQEDERRFFRDVCAEWMEQYRLTVRESTLEKTQRIINIHVLPAFGDMVINNITPNVCQKVVNKWFLEAKSYKKWLNYASMIFDYALRAEYVGRNPCTLVTMPRVQEQAGEKLENFWTRDELNTFFDYVTPERDVEQFTMFRVLAYSGIRKGELLALTWKDINFEDNTLRVNKTLTQGLGGKLIVQPPKSRAGRRTIDLDDSTMRYLRQWKGVQRETFLGMGFNTNNVDQLVFASNRNHFRSMNTPTKWLNKAIKATGLKHISIHGFRHTHASLLYQSGVGLKETQQRLGHSRADSSVTLDVYTHTTEQQNVAALQRFENYVEAK,failed
8,MAKKTGTKEPAPKKEKKKKERRRGKGEGTIVPHASGLFMAQISLGRDPLTGKRIRPTIYDDSEVGVQKKLRKLLIKKDLGKSVKPNKTLVGEWIRIWLDIYSKPNVGIGTWDGYDLNFTNHIENSFIARKTMSGLTTDDLQVYYNMKLLNGRKDGKGGLSTRFVKAIHTVISSAFDQAVTSGHLEKNPASGVRISNKRRPKIKIWNKEQMALYLKAIKKDRLYAAFVTDSKSGLRKSELLALRWSDIDFSTGLTKIERGWVRSPKGTLYLSDLKSENSERTLVFSTDLLKVLLEHKSRQDEEKKTAGKNYIDNGLVFCREDGSYINPSTFTRRHYDLTAKAKLPRISVHALRHSISTALLESGKVDLKQIQEMLGHKDISTTGNYYTDVLERMKQKTSELIDNLIQTEETPAQASLPAAQPSASDLAEEESVEAKNVIDFATRRNEKLFIASNGQKQKNREKAQKP,failed
9,MAKKVKVITDPEVIKVMLEDTRRKILKLLRNKEMTISQLSEILGKTPQTIYHHIEKLKEAGLVEVKRTEMKGNLVEKYYGRTADVFYINLYLGDEELRYIARSRLKTKIDIFKRLGYQFEENELLNIMDRMSQKEFDATVRISKYIEEKEDALKDFSNEDIIHAIEWLSTAELARDEEYLELLKRLGSILKR,not failed
10,MAKLTTDSPLCRKIVRSFLNFLDSVEVAPGVDEEGLEVARECLREAFKLNSDSSRDDDDDSFKPISLVNLFTSLDNNETIPPPPPPPVAATTQDPSSSGSHVSVDTCKEPSFTGTSRDELFGQLFGALEKVRYFRNTPDGDDDPAQLEKATRIFHDCVNEMEKSGCQTFDVNSLAETLKCQGNKAMQSNLYLEAVELYSFAIALTDKNAVFYCNRAAAYTQINMCSEAIKDCLKSIEIDPNYSKAYSRLGLAYYAQGKYAEAIEKGFKKALLLDPHNESVKENIRVAEQKIREEQQRQRRSQQNTSTFYTQEPEMGGGQGIPSQFSMPVNPDLMSMFMNMAGNTFPGNHSRNNEGGAGGDGTRNGADEPEIHVGGNINIDLGGTEQMPEDLSGALRSMMQMFGGSMGGTGNNNPQDSNGAQGRPSGN,failed
11,MAKRFMCETLGTACLGLSMALAAPAAFALADIIETPARPTELAPQSLLTDATRAGDRIVSVGERGHVIYSDDQGQSWTQAEVPVAVTLTAVDFGTEQHGWVVGHSGVVLHSSDSGETWELQLDGIQAAELVIASKEDQIAELEERIEQAPEEEKADLEWALDDLFFALENTQADMEIGPVNPFLDVWFEDENHGFVVGAYGMILRTQDGGQTWEDWAPKLDNPTNFHYNSIAEVAGGALVVVGEAGQIHVSVDGGESWEKRESPYDGSLFGVTGTGRVNEVLAFGLRGNTLLSTDLGRSWTMVPNEGGATLNNAAVAEDGRITLVGNGGAVLMSTNNGESFRPYFRNDREGVMGVVPLPGTNLLLVGEGGVEITDARGRNLN,failed
12,MAKTDARSPRTERGTIALQDASQDIWDKKYRLKSKDGTPVDASVDGTWQRVARALADVEDKASREHWYGRFLWALRNGAIPAGRIISNAGALGHKPATSTINCTVSGTIQDSMDNILEKVHEAGLTLKAGCGIGYEFSTLRPRGAYVSGAGAYTSGPLSFMDIYDKMCFTVSSAGGRRGAQMGTFDVSHPDVREFIRAKREDGRLRQFNLSLLITDQFMQAVEQDADWPLVFPVHVKERDEIDLDDPNAVVWREWPIQDDYVQRADGLVACKVYGQVRARHLWDMIMVSTYDYAEPGFILIDRVNELNNNWWCEAIRATNPCGEQPLPPYGSCLLGSVNLTCFVEQPFGDEARFDWDRFREVVRVFTRMLDNVVEINGLPLEQQRQEILGKRRHGMGFLGLGSTLTLLKLRYGSPEACVFTEEVAREMALVGWEVALELAREKGPAPILAQDYEVTAEMLRKRPEMAADGYKAGDRIRGSVLHAKYSRYMQRVAEHAPELIEALAETGARFTHHSSIAPTGTISLSLANNASNGIEPSFAHHYSRNLIREGRKTKEKVEVYSYELLAYRTLVNAQALPDSDDPARRLPDYFITADSVTPAQHMDIQAAAQKWVDSSISKTANVPTDYPFEDFKDIYRYAWHQGLKGCTTFRFNPEAFQGVLVKESDLEKTRYRFELEDGSVVEFKGNEQVEYDGEIHTAANLFDALKEGYYGK,failed
13,MAKYQSMLVVIDPNQDDQPALRRAVYLHQRIGGRIKAFLPIYDFSYEMTTLLSPDERTAMRQGVIAQRTAWIREQAKFYLESGVPIDVKVVWHNRPFEAIIQEVVSEKHDLLLKMAHQHDKLEAVIFTPTDWHLLRKCPCPVWMVKDQPWPEGGKALVAVNLASEENYHNTLNEKLVRETLSLAEEVNHTEVHLIGAYPVTPINIAIELPDFDPSVYNDAIRGQHLLAMKALRQKFGIDEKFTHVEKGLPEEVIPDLAEHLQAGIVVLGTVGRTGLSAAFLGNTAEQVVDHLRCDLLVLKPEAYQTPVELDDDDDD,failed
14,MALELSRLPELLSRIDGYKGQPVTRLAVMLNLLVFIRSSELRYARWSEIDIDNSMWTIPAEREPLPGVKFSHRGSKMRTPHLVPLSKQVVAILAELQTWAGENGLIFTGAHDPRKPISENTVNKALRVMGYDTTQEVCGHGFRAMACSALIESGLWSRDAVERQMSHQERNGVRAAYIHKAEHLEERRLMLQWWADFLDANREKGISPFEYAKINNPLKLEHHHHHH,not failed
15,MALFKRSSASAKGFDWMGLLWLFLFFWYFSGITQLLIQLTDTSGFTGFRQAFFMSAIWLAPMLLFPARTKVMAAVIGVVLWACSMASLGYFFVYQQEFSQSVIFIMFESNPSEAGEYLTQYFAWWMLLAFLAHSAFAFFLWTRLRPVYLPRGQALVAATAILVAIVGYPLVKQISRADTLAAGLEKFETRIEPAVPWQMVIAYRRYREQLDGMQGMLASASKIAPLTNLKDSMANQPATLVLVIGESTNRQRMSLYGYPRQTTPELDKLKDQLAIFNNVITPRPYTIEALQQVLTFADEENPDLYLKSPSLVSVMKQAGYKTYWITNQQTMTKRNTMLTTFSEQADEQVYLNNNRNQNARQYDGDVLEPFSKALADSAPRKFIVVHLLGTHMSYQYRYPPSFDKFNDRQGVPAGVRDDQLPTYNSYDNAVLYNDFVVSNLIKNYAKTDPNGFLLYLSDHGEDVFDSAGHDTLGRNEARPTAPMYTIPFMAWASPKWRETHDWSFASDLSRPYMSSQLIHTWADLAGLSFDELDHSRSLVSDSFKPRPLLIGDPYSRQSKPLIDFSLMKPKAPVEATVVQK,failed
16,MALINLNHTDDGYDAYDACPARSVQQETAVGAGAQILLLALLGTAIGMGTAGWLTGLAFAFASWAVLSRALHRSRLPSFGPANRVTLGRATLVGGVTALVADSFRSAPPLSLLVGLTAVALILDGVDGRVARRTGTSTPLGARFDMEVDAFLILVLSVYVALDLGPWVLLIGGMRYVFVAAARVWPWLTAPLPPSTARKTVAALQGVLLLLAGAELLPRPGNAGVVAVALGLLVWSFGRDVRWLWRRSRVPAAPVTAVRELVAQ,failed
17,MALLKWIPARGTLPLSPKWVATTLADASPDSVPVLFLHGTLGSPGNFERPAQRLAQLGRPFFAPAYGEHGTADLDRSTAELLRYVDHLRDMGIKQVDIVGHSAGGLQGLRIAHARPGFVRKLIGLGAAFRGVPRTVRFKPVVKLITGQAVIQLTQEIPAELPDGVELVSIYSTADHIVPVASSTLGELIEITDIRHEDLPRQADVIMEALGYPAETDSPTD,failed
18,MALPLSQLPQEIIREVRGRKGLAFLAFVIVSFAVLGAGFVWPYKYQSETIIFVDDRNIIAPLMEGRAVATEINDRTSAAKELLMSRSLIEKVALDPEIYPDAPSDPAALEYRIANIRSGLSVRPRGDSYFSIGFSSTSQMEAFRVAQKLGQVFIEETKDRKRAESRNAYDFIDKQVKSYEQQLAQAENRLKEFLSENTDGTEQEANARMAQLRNQLELAELEKKELETRAASLQSQLGGIRPTITQGRTEDAYRERIRILEERLDSLRLQYHDTYPDIVILREQLAELRKQRDQAAERPTDVSSLEGEEAVNPLYQELRANLSTTRADMATVDTRITSLSRLLEQQAKRMERIQANKAQYSELTRDMEVNREIYDDLLKRREKARVSMHLDIEGQGLNYRINETAQFPRTPSGPQFSMFAAAGLFLGLAAPFGAVAGLLQVDPRIRARKQLEEDIGLPVLVEIPEVRTPYEKRRDRKVTLLIGIFAVLTVTVYVTIVVLAQMGVI,failed
